How the values were obtained:
[1] = target: T1, human CD3ε/δ-Fc fusion heterodimer (hCD3ε/δ-hFc) (human, UniProt P04234 22-105); experiment: SPR single point, hybridoma supernatant
T1 construct: also called CD3ed-Fc; human CD3ε/δ complex; not shown: hinge-CH2-CH3 of human IgG with tag
Procedure: Rats with positive sera were scarified and B cells were fused with mouse myeloma cells. The resulting hybridomas were screened on HEK293 cells transfected with human or cynomolgus CD3ε and CD3δ expression plasmids, on Jurkat E6.1 (CD3+) and Jurkat T3.5 (CD3-) by flow cytometry. Supernatant of Hybridoma clones was used to assess by surface plasmon resonance single point kinetic against human and Macaca fascicularis CD3ε/δ complex by fixing the analyte at 25 nM (data presented in table 3).

[2] = target: T2, human CD123 (IL3RA) Strep-II tagged Fc-fusion protein (human); experiment: SPR Proteon XPR36, rat IgG captured, CD123-Fc analyte
T2 construct: also called human CD123-Fc
T2 sequence (chain, as listed by the source limits assumed): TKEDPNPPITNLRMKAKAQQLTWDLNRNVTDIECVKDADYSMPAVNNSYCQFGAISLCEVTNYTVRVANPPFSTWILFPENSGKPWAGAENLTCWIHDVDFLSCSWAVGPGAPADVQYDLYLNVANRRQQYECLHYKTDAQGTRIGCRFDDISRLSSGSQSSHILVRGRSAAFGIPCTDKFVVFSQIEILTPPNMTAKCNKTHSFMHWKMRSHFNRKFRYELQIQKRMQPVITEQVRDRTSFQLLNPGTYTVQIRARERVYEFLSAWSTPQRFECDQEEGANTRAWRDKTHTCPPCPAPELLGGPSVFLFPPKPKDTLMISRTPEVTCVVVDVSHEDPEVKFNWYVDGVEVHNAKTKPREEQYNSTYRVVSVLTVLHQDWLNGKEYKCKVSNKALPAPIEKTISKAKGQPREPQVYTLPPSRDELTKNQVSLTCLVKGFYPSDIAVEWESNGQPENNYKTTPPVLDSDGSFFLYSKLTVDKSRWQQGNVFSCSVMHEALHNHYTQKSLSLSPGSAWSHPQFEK
Procedure: Screening of anti-CD123 rat IgGs for binding affinities to human CD123 and cross-reactivities to cyno CD123 was performed with hybridoma supernatants using a Proteon XPR36 (Biorad) in a one-shot kinetics approach. A capture assay was established using a goat anti-rat IgG (112-005-071, Jackson Immuno Research). The capture antibody was coated on GLC chips (176-5011, Biorad) to approx. 8000 RU in the vertical direction using the amine coupling kit (176-2410, Biorad). […] Binding kinetics with human and cyno CD123-Fc fusion protein was measured at 100 μl/min in the horizontal direction with 120 sec. and 600 sec. for association and dissociation, respectively. The CD123-Fc proteins were used in twofold dilutions from 6 nM to 100 nM. PBSET buffer (176-2730, Biorad) was used as assay buffer. Regeneration was achieved by injection of 10 mM Glycine buffer pH 1.5 for 18 sec at 30 μl/min. Data processing and analysis was performed using ProteonManager software v3.0. Fitting of the sensorgrams was done with a 1:1 Langmuir model.

T1 sequence (chain, as listed by the source mutant, chain 1 of 2): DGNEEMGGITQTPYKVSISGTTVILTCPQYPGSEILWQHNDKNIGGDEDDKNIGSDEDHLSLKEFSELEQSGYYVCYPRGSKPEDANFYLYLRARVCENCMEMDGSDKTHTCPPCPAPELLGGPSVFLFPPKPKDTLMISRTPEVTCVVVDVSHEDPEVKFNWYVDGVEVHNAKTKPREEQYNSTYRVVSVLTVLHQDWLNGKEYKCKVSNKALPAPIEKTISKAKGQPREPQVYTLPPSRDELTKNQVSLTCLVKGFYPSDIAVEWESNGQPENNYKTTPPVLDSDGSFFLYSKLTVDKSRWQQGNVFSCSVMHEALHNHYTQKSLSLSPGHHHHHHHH
T1 sequence (P04234 22-105, stated change not applied, chain 2 of 2): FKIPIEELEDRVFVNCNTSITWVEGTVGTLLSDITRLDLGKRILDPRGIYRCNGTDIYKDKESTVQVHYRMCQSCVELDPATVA

Binder | RU at 25 nM [1] | koff [2]
11H3-E5 anti-CD3 antibody (antibody, V domains shown, rat mAb, hybridoma supernatant) VH: EVQLVETGGSLVQPGKSLKLTCATSGFTFSNAWMHWVRQSPEKQLEWVAQIKAKSNNYATYYAESVKGRFTISRDDSKSSVYLQMNSLKEEDTAIYYCRGTYYAYKPFDYWGQGVMVTVSS VL: DVVMTQTPVSLSVSLGGQVSISCRSSQSLVHDNGNTYLSWSLQKPGQSPQVLIYKVSNRFSGTSDRFTGSGSGTDFTLKISRVEPDDLGVYYCGQGTQYPFTFGSGTKLEIK | 7 RU | –
3B10-E6 anti-CD123 antibody (antibody, V domains shown, rat IgG, hybridoma supernatant; also called BFX - 3B10) VH: QVQLQQSGPELRRPGSSVRLSCKASGYRIKDFLIHWIKNRPEHGLEWIGWIDPEDGETKYAQKFQTKATLTADTSSNTAYMQLSSLTSEDTATYFCARWGDVYYGLMRGHVMDAWGQGTSVTVSS VL: DVLMTQTPVSLPVSLGGQVSISCRSSQSLVHSDGDTYLHWYLQKPGQSPQLLIYRVSNRFSGVPDRFSGSGSGTDFTLKISRVEPEDLGLYYCLQTTHFPPWTFGGGTKLEMK | – | ~5e-05 s⁻¹
